Data on one molecule can be found in patent US20230088052A1 (JIANGSU HENGRUI PHARMACEUTICALS, published 2023).

Assay [1] has as its target T1, his-tagged mouse IL-4R recombinant protein (m-IL-4R-his) (mouse, UniProt P16382 26-233).
T1 construct: range 26-233; also called Murine IL-4R-his; not shown: his tag
T1 sequence (looked up): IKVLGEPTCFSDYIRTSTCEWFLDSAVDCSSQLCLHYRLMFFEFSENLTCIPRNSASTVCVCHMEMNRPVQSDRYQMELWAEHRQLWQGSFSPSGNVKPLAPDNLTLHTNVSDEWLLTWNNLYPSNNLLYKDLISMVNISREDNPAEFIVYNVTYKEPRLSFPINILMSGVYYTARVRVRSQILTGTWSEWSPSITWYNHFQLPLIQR
The assay is described as follows: ELISA, IL-4R-his coated on the plate.

Assay [2] deals with human IL-4R on cells (HEK-Blue IL-4 cells, TF-1 cells) (human, UniProt P24394 26-825). The assay is described as follows: cell-based or functional assay.
Assay [3] addresses T2, his-tagged human IL-4R recombinant protein (h-IL-4R-his) (human, UniProt P24394 26-232).
T2 construct: range 26-232; Made by Acrobiosystems in HEK293; also called Human IL-4R-his; not shown: his tag
Kind of assay: binding ELISA, human IL-4R-his coated. On the procedure: ELISA experiment was used to detect binding properties of anti-IL-4R antibodies. A microplate was coated with his-tagged IL-4R recombinant protein. After the antibody was added to each well, the activity of the binding of the antibody to the antigen was detected by adding a secondary antibody (HRP-conjugated anti-primary antibody Fc antibody) and HRP substrate TMB.
Human or rhesus IL-4R-his protein was coated on a 96-well microplate, 100 μL per well at a concentration of 0.5 μg/mL, and incubated overnight at 4° C. The plate was washed three times with washing buffer at 250 μL per well. A blocking solution was added at 200 μL per well and the plate was incubated at room temperature for 2 h. The plate was washed three times with washing buffer at 250 μL per well. Anti-IL-4R antibody to be tested diluted in diluent was added at 100 μL per well. The plate was incubated at room temperature for 1 h. The plate was washed three times with washing buffer at 250 μL per well. HRP-labeled goat anti-human IgG secondary antibody diluted at 1:20000 with diluent was added at 100 μL per well. The plate was incubated at room temperature for 1 h. The plate was washed three times with washing buffer at 250 μL per well. TMB was added at 100 μL per well, and the mixture was reacted for 15 min in the dark. 0.16 M/L sulfuric acid was added at 50 μL per well. The OD value was read at 450 nm by a Thermo MultiSkanFc microplate reader and the binding EC₅₀ value of the anti-IL-4R antibody to IL-4R was calculated.

Assay [4] deals with T3, humanized Fc-tagged human IL-4R recombinant protein (h-IL-4R-Fc) (human, UniProt P24394 26-232).
T3 construct: range 1-232; The printed range starts at Met1, so it includes the signal peptide of the construct; also called Human IL-4R-Fc; not shown: Fc tag
Kind of assay: blocking ELISA: human IL-4R-Fc coated, antibody blocks the binding of IL-4. As for the experimental part: Human IL-4R-Fc protein was coated on a 96-well microplate, 100 μL per well at a concentration of 0.5 μg/mL, and incubated overnight at 4° C. The plate was washed three times with washing buffer at 250 μL per well. A blocking solution was added at 200 μL per well and the plate was incubated at room temperature for 2 h. The plate was washed three times with washing buffer at 250 μL per well. Anti-IL-4R antibody to be tested diluted in diluent was added at 100 μL per well, and the plate was incubated at room temperature for 1 h. The plate was washed three times with washing buffer at 250 μL per well. […] HRP-labeled Neutravidin diluted in a diluent at 1:5000 was added, and the plate was incubated at room temperature for 1 h. The plate was washed three times with washing buffer at 250 μL per well. TMB was added at 100 μL per well, and the mixture was reacted for 15 min in the dark. 0.16 M/L sulfuric acid was added at 50 μL per well.

B1: murine monoclonal antibody 7B10 (antibody, V domains shown)
VH: QVQLQQPGTELLKPGASVSLSCKASGYTFTSYWMHWVKQRPGQGLEWIGLIHPNSDTTKFSENFKTRATLTIDKSSSTAYMKLSSLTSEDSAVYYCAKSKIITTIVARHWYFDVWGTGTTVTVSS
VL: DIVLTQSPPSLAVSLGQRATISCKASQSVDYGGDSYMNWYQQKLGQPPKVLIYAASNLESGIPARFSGSGSGTDFTLNIHPVEEEDVATYYCQHSNENPPTFGGGTKLEIK
notes: also called hybridoma 7B10
For the molecule B1, the binding result in assay [1] was “no binding”. In assay [2], the “IC50 for blocking binding of HEK293-Blue IL-4 cells (to IL-4)” value was found to be 0.0798 µg/mL and the “IC50 for inhibiting IL-4-related proliferation of TF-1 cells” value came to 0.418 µg/mL. Further, the EC50 in assay [3] was determined as 0.0458 µg/mL. For the same molecule, the IC50 in assay [4] came out at 0.0299 µg/mL.
